Results published in PMC13334617 (Advanced Science, 2026).

Target: wild-type AC fused to GFP (AC-GFP), encoded by plasmid pAC0-Gfp (GFP: Aequorea victoria (variant not …, UniProt P42212 = GFP))
Assay: two-hybrid
Conditions: partners not purified

B1: CaM fused to the V9A nanobody at its N-terminus and a tetra-cysteine tag at its C-terminus (CaM-V9A), encoded by plasmid pTCam-V9A (VHH)
VHH: DVQLQESGGGSVQAGGSLRLSCAASGDTFSSYSMAWFRQAPGKECELVSNILRDGTTTYAGSVKGRFTISRDDAKNTVYLQMVNLKSEDTARYYCAADSGTQLGYVGAVGLSCLDYVMDYWGKGTQVTVSS
notes: source: E. coli DHM1, expressed in cells from plasmid pTCam-V9A (high expression); not shown: tetra-cysteine tag, C-terminal, kept
- cAMP: > 250 nmol/mg
- ß gal (Rel. Units): 107 Rel. Units
